US20050262592

Tests used:
streptokinase, P00779 = target: T1, streptokinase, P00779
T1 chain: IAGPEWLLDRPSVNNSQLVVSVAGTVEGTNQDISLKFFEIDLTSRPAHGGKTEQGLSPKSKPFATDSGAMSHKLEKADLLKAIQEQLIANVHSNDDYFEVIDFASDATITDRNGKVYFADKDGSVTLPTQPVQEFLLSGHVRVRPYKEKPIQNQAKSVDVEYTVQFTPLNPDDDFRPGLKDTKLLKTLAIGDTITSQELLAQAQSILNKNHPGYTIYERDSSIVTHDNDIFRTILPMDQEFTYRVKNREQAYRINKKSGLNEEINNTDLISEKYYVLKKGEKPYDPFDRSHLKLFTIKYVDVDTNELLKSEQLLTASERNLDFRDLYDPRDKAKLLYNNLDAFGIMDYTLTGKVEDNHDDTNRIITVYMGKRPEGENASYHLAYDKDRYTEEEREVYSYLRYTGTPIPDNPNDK

[1] = target: T2, duckweed-produced human microplasminogen
T2 chain: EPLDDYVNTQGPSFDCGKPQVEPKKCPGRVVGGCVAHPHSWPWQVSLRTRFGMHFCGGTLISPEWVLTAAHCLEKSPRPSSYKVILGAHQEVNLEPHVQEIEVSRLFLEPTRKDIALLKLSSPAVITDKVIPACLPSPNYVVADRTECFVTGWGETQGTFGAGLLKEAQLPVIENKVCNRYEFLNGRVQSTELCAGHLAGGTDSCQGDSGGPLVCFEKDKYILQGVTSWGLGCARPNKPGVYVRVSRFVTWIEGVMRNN

B1: duckweed-produced human plasminogen (protein)
chain: KVYLSECKTGNGKNYRGTMSKTKNGITCQKWSSTSPHRPRFSPATHPSEGLEENYCRNPDNDPQGPWCYTTDPEKRYDYCDILECEEECMHCSGENYDGKISKTMSGLECQAWDSQSPHAHGYIPSKFPNKNLKKNYCRNPDRELRPWCFTTDPNKRWELCDIPRCTTPPPSSGPTYQCLKGTGENYRGNVAVTVSGHTCQHWSAQTPHTHNRTPENFPCKNLDENYCRNPDGKRAPWCHTTNSQVRWEYCKIPSCDSSPVSTEQLAPTAPPELTPVVQDCYHGDGQSYRGTSSTTTTGKKCQSWSSMTPHRHQKTPENYPNAGLTMNYCRNPDADKGPWCFTTDPSVRWEYCNLKKCSGTEASVVAPPPVVLLPDVETPSEEDCMFGNGKGYRGKRATTVTGTPCQDWAAQEPHRHSIFTPETNPRAGLEKNYCRNPDGDVGGPWCYTTNPRKLYDYCDVPQCAAPSFDCGKPQVEPKKCPGRVVGGCVAHPHSWPWQVSLRTRFGMHFCGGTLISPEWVLTAAHCLEKSPRPSSYKVILGAHQEVNLEPHVQEIEVSRLFLEPTRKDIALLKLSSPAVITDKVIPACLPSPNYVVADRTECFVTGWGETQGTFGAGLLKEAQLPVIENKVCNRYEFLNGRVQSTELCAGHLAGGTDSCQGDSGGPLVCFEKDKYILQGVTSWGLGCARPNKPGVYVRVSRFVTWIEGVMRNN
cleavage of the chromogenic substrate Glu-Phe-Lys-pNA at 405 nm (streptokinase, P00779): For each of the seven transgenic lines tested, the activity level was closely correlated with the protein expression levels as determined by ELISA | streptokinase activity assay (cleavage of a chromogenic substrate, Coamatic plasminogen kit) (streptokinase, P00779): Activation with streptokinase also produced activated plasminogen

B2: duckweed-produced human microplasminogen (protein)
chain: T2 chain
activity following activation by streptokinase (chromogenic substrate assay as for plasminogen) (streptokinase, P00779): The duckweed-produced microplasminogen showed some level of activity in the absence of streptokinase, and a significant increase in activity following activation by streptokinase

B3: tissue plasminogen activator (protein)
chain: SYQVICRDEKTQMIYQQHQSWLRPVLRSNRVEYCWCNSGRAQCHSVPVKSCSEPRCFNGGTCQQALYFSDFVCQCPEGFAGKCCEIDTRATCYEDQGISYRGTWSTAESGAECTNWNSSALAQKPYSGRRPDAIRLGLGNHNYCRNPDRDSKPWCYVFKAGKYSSEFCSTPACSEGNSDCYFGNGSAYRGTHSLTESGASCLPWNSMILIGKVYTAQNPSAQALGLGKHNYCRNPDGDAKPWCHVLKNRRLTWEYCDVPSCSTCGLRQYSQPQFRIKGGLFADIASHPWQAAIFAKHRRSPGERFLCGGILISSCWILSAAHCFQERFPPHHLTVILGRTYRVVPGEEEQKFEVEKYIVHKEFDDDTYDNDIALLQLKSDSSRCAQESSVVRTVCLPPADLQLPDWTECELSGYGKHEALSPFYSERLKEAHVRLYPSSRCTSQHLLNRTVTDNMLCAGDTRSGGPQANLHDACQGDSGGPLVCLNDGRMTLVGIISWGLGCGQKDVPGVYTKVTNYLDWIRDNMRP
Western blot: production of the B chain of plasmin [1]: Western blot analysis confirmed the production of the B chain of plasmin following activation of duckweed-produced microplasminogen with either urokinase or tPA
